Data as given in the Human Domainome abundance scans (Beltran et al. 2025).
± gives the uncertainty stated by the source.

B1: Nucleosome-remodeling factor subunit BPTF, residues 2862 to 2918; numbered along this chain, Q12830 (parent)
chain: TKKDTKLYCICKTPYDESKFYIGCDRCQNWYHGRCVGILQSEAELIDEYVCPQCQST

Variants of: B1
Test: abundance fitness (aPCA) (normalised: wild type 0, dead -1); higher = more abundant; growth selection in yeast, the domain comes from the species named
Settings: Homo sapiens
In the case of W30S, the abundance fitness is reported as -0.009 ± 0.081.
For W30A, the abundance fitness was 0.09 ± 0.078.
W30H gave an abundance fitness of 0.004 ± 0.1.
In the case of G37S, the abundance fitness is reported as -0.074 ± 0.07.
Variant G37F has an abundance fitness of -0.418 ± 0.11.
G37A showed an abundance fitness of -0.277 ± 0.082.
For G37I, the abundance fitness was -0.882 ± 0.16.
G37Q gave an abundance fitness of -0.216 ± 0.15.
K3D showed an abundance fitness of -0.097 ± 0.16.
With K3Q the abundance fitness was -0.032 ± 0.14.
K3F gave an abundance fitness of -0.041 ± 0.11.
For K3G, the abundance fitness was -0.148 ± 0.071.
K3A showed an abundance fitness of -0.146 ± 0.073.
I10G gave an abundance fitness of -0.387 ± 0.073.
Variant I10R has an abundance fitness of -0.368 ± 0.072.
Work on I10S yielded an abundance fitness of -0.387 ± 0.084.
For I10K, the abundance fitness was -0.218 ± 0.13.
K19W showed an abundance fitness of -0.668 ± 0.17.
In the case of K19V, the abundance fitness is reported as -0.108 ± 0.087.
With K19M the abundance fitness was -0.08 ± 0.098.
With K19R the abundance fitness was 0.048 ± 0.1.
For K19C, the abundance fitness was -0.252 ± 0.13.
K19S gave an abundance fitness of -0.186 ± 0.09.
With K19I the abundance fitness was -0.101 ± 0.089.
Work on K6M yielded an abundance fitness of -0.013 ± 0.078.
For K6L, the abundance fitness was -0.085 ± 0.055.
With K6G the abundance fitness was -0.071 ± 0.081.
K6N gave an abundance fitness of -0.045 ± 0.058.
Work on K6R yielded an abundance fitness of -0.086 ± 0.071.
For K6Q, the abundance fitness was -0.032 ± 0.081.
With K6V the abundance fitness was -0.161 ± 0.07.
Variant K6H has an abundance fitness of -0.057 ± 0.057.
For K6I, the abundance fitness was -0.08 ± 0.06.
Work on K6A yielded an abundance fitness of 0.069 ± 0.072.
K6T gave an abundance fitness of 0.008 ± 0.061.
L7C gave an abundance fitness of -0.058 ± 0.07.
With L7I the abundance fitness was -0.179 ± 0.092.
In the case of L7R, the abundance fitness is reported as -0.18 ± 0.062.
Q40D gave an abundance fitness of -0.126 ± 0.25.
With Q40M the abundance fitness was -0.244 ± 0.14.
Q40Y showed an abundance fitness of -0.306 ± 0.17.
Q40I showed an abundance fitness of -0.378 ± 0.17.
In the case of Q40N, the abundance fitness is reported as -0.296 ± 0.17.
Work on Q40G yielded an abundance fitness of -0.062 ± 0.093.
For Q40W, the abundance fitness was -0.371 ± 0.12.
Variant Q40V has an abundance fitness of -0.19 ± 0.11.
Variant Q40H has an abundance fitness of 0.002 ± 0.17.
With C35A the abundance fitness was -0.827 ± 0.12.
In the case of C35N, the abundance fitness is reported as -1.07 ± 0.18.
For C35G, the abundance fitness was -0.958 ± 0.12.
For C35Y, the abundance fitness was -0.878 ± 0.12.
Variant C35L has an abundance fitness of -0.81 ± 0.083.
C35P gave an abundance fitness of -0.74 ± 0.14.
C35W showed an abundance fitness of -0.981 ± 0.12.
C35E showed an abundance fitness of -0.834 ± 0.16.
With S18I the abundance fitness was -1.05 ± 0.26.
In the case of S18K, the abundance fitness is reported as -0.277 ± 0.27.
S18W gave an abundance fitness of -0.746 ± 0.21.
S18R gave an abundance fitness of -0.24 ± 0.095.
With S18H the abundance fitness was -0.098 ± 0.11.
Work on S18V yielded an abundance fitness of -0.72 ± 0.12.
In the case of S18P, the abundance fitness is reported as -0.759 ± 0.13.
Work on S18C yielded an abundance fitness of -0.366 ± 0.1.
With T13G the abundance fitness was -0.567 ± 0.46.
With T13D the abundance fitness was -0.54 ± 0.19.
Variant T13R has an abundance fitness of -0.22 ± 0.12.
Work on C54F yielded an abundance fitness of -1.06 ± 0.14.
In the case of C54A, the abundance fitness is reported as -0.851 ± 0.12.
C54R gave an abundance fitness of -0.875 ± 0.1.
Work on C54W yielded an abundance fitness of -0.802 ± 0.12.
With C54D the abundance fitness was -0.819 ± 0.17.
Variant C54V has an abundance fitness of -0.934 ± 0.1.
Variant C54N has an abundance fitness of -0.802 ± 0.16.
For C54P, the abundance fitness was -0.64 ± 0.12.
Variant C54G has an abundance fitness of -0.755 ± 0.14.
Work on C54T yielded an abundance fitness of -1.01 ± 0.12.
With A43Q the abundance fitness was 0 ± 0.1.
Variant A43N has an abundance fitness of -0.251 ± 0.13.
In the case of A43L, the abundance fitness is reported as -0.144 ± 0.099.
A43F showed an abundance fitness of -0.17 ± 0.16.
In the case of A43R, the abundance fitness is reported as -0.076 ± 0.081.
Work on A43T yielded an abundance fitness of -0.148 ± 0.097.
For A43M, the abundance fitness was -0.13 ± 0.092.
In the case of C11E, the abundance fitness is reported as -0.638 ± 0.15.
C11S gave an abundance fitness of -0.934 ± 0.093.
In the case of C11I, the abundance fitness is reported as -0.968 ± 0.18.
For C11Y, the abundance fitness was -0.997 ± 0.1.
Work on C11A yielded an abundance fitness of -0.934 ± 0.094.
Work on C11H yielded an abundance fitness of -1.01 ± 0.2.
C11P gave an abundance fitness of -0.802 ± 0.12.
Work on V36Y yielded an abundance fitness of -0.957 ± 0.17.
Variant V36I has an abundance fitness of -0.109 ± 0.094.
In the case of V36D, the abundance fitness is reported as -0.801 ± 0.14.
Variant V36C has an abundance fitness of -0.572 ± 0.14.
Y15M gave an abundance fitness of -0.005 ± 0.073.
In the case of Y15F, the abundance fitness is reported as -0.02 ± 0.1.
In the case of Y15E, the abundance fitness is reported as -0.489 ± 0.1.
Y15C showed an abundance fitness of -0.505 ± 0.13.
Variant Y15G has an abundance fitness of -0.492 ± 0.076.
In the case of Y15D, the abundance fitness is reported as -0.438 ± 0.11.
Y15I gave an abundance fitness of -0.073 ± 0.1.
For S41G, the abundance fitness was -0.105 ± 0.074.
For S41M, the abundance fitness was -0.137 ± 0.17.
Work on S41A yielded an abundance fitness of -0.146 ± 0.1.
With S41P the abundance fitness was -0.106 ± 0.12.
Y49L gave an abundance fitness of -0.36 ± 0.075.
With Y49C the abundance fitness was -0.761 ± 0.18.
Work on Y49F yielded an abundance fitness of -0.069 ± 0.11.
Work on Y49Q yielded an abundance fitness of -0.615 ± 0.15.
Work on Y49P yielded an abundance fitness of -0.494 ± 0.13.
Work on Y49T yielded an abundance fitness of -0.447 ± 0.1.
With Y49D the abundance fitness was -0.715 ± 0.12.
Work on F20Q yielded an abundance fitness of -0.104 ± 0.092.
Variant F20A has an abundance fitness of -0.161 ± 0.09.
For F20T, the abundance fitness was -0.009 ± 0.093.
F20P gave an abundance fitness of -0.001 ± 0.097.
In the case of T1L, the abundance fitness is reported as -0.256 ± 0.18.
T1A gave an abundance fitness of -0.54 ± 0.29.
Variant T1S has an abundance fitness of -0.104 ± 0.091.
Work on T1M yielded an abundance fitness of -0.13 ± 0.19.
T1D gave an abundance fitness of -0.071 ± 0.34.
With T1V the abundance fitness was -0.177 ± 0.17.
Variant T1R has an abundance fitness of -0.281 ± 0.15.
With E48G the abundance fitness was -0.112 ± 0.095.
Variant E48F has an abundance fitness of -0.262 ± 0.11.
Variant E48R has an abundance fitness of 0.055 ± 0.07.
Variant E48T has an abundance fitness of -0.002 ± 0.096.
Variant V50Q has an abundance fitness of -0.191 ± 0.14.
Variant V50D has an abundance fitness of -0.268 ± 0.15.
With V50A the abundance fitness was -0.252 ± 0.088.
Variant V50T has an abundance fitness of 0.037 ± 0.086.
V50N showed an abundance fitness of -0.203 ± 0.14.
In the case of V50Y, the abundance fitness is reported as -0.357 ± 0.11.
T57A gave an abundance fitness of 0.024 ± 0.091.
With T57Y the abundance fitness was -0.33 ± 0.28.
For T57E, the abundance fitness was -0.022 ± 0.21.
T57M showed an abundance fitness of -0.509 ± 0.36.
Work on T57R yielded an abundance fitness of -0.106 ± 0.17.
For T57G, the abundance fitness was -0.16 ± 0.18.
In the case of C27M, the abundance fitness is reported as -0.816 ± 0.1.
Variant C27H has an abundance fitness of -1.11 ± 0.29.
Work on C27V yielded an abundance fitness of -0.803 ± 0.13.
For C27S, the abundance fitness was -0.811 ± 0.091.
In the case of C9R, the abundance fitness is reported as -0.879 ± 0.09.
C9T showed an abundance fitness of -0.851 ± 0.081.
With C9D the abundance fitness was -0.827 ± 0.1.
C9L showed an abundance fitness of -0.815 ± 0.065.
D25T gave an abundance fitness of 0.056 ± 0.078.
In the case of D25N, the abundance fitness is reported as 0 ± 0.1.
With D25E the abundance fitness was 0.058 ± 0.07.
With D25R the abundance fitness was 0.025 ± 0.067.
Variant D25H has an abundance fitness of -0.061 ± 0.15.
In the case of D25Q, the abundance fitness is reported as 0.099 ± 0.099.
C51Q gave an abundance fitness of -0.98 ± 0.15.
C51D gave an abundance fitness of -0.718 ± 0.14.
Variant C51Y has an abundance fitness of -0.928 ± 0.14.
C51K showed an abundance fitness of -0.774 ± 0.16.
In the case of C51L, the abundance fitness is reported as -0.889 ± 0.093.
Variant S56K has an abundance fitness of -0.03 ± 0.39.
In the case of S56R, the abundance fitness is reported as 0.074 ± 0.35.
S56N showed an abundance fitness of 0.269 ± 0.4.
With D47R the abundance fitness was -0.044 ± 0.071.
For D47M, the abundance fitness was -0.14 ± 0.14.
Work on D47W yielded an abundance fitness of -0.326 ± 0.12.
For D47K, the abundance fitness was 0.089 ± 0.093.
For D47H, the abundance fitness was 0.134 ± 0.14.
In the case of Q55C, the abundance fitness is reported as -0.072 ± 0.09.
